Data: patent US20130209454A1

Legend:
Assay in all cases: cell-based or functional assay
[1] = biological target: HIV-1 Env of strain 191821_E6_1 (HIV-1)
[2] = biological target: HIV-1 Env of strain A07412M1.vrc12 (HIV-1)
[3] = biological target: HIV-1 Env of strain BJOX010000.06.2 (HIV-1)
[4] = biological target: HIV-1 Env of strain TRJO4551.58 (HIV-1)
[5] = biological target: HIV-1 Env of strain 7030102001E5(Rev) (HIV-1)
[6] = biological target: HIV-1 Env of strain CNE8 (HIV-1)
[7] = biological target: HIV-1 Env of strain Ce1172_H1 (HIV-1)
[8] = biological target: HIV-1 Env of strain SC05_8C11_2344 (HIV-1)
[9] = biological target: HIV-1 Env of strain BJOX015000.11.5 (HIV-1)
[10] = biological target: HIV-1 Env of strain 6952.v1.c20 (HIV-1)
[11] = biological target: HIV-1 Env of strain BF1266.431a (HIV-1)
[12] = biological target: HIV-1 Env of strain CNE5 (HIV-1)
[13] = biological target: HIV-1 Env of strain CNE52 (HIV-1)
[14] = biological target: Env of HIV-1 strain T255-34 (HIV-1)
[15] = biological target: Env of HIV-1 strain CNE5 (HIV-1)
[16] = biological target: Env of HIV-1 strain 3415.v1.c1 (HIV-1)
[17] = biological target: Env of HIV-1 strain T251-18 (HIV-1)
[18] = biological target: Env of HIV-1 strain R1166.c01 (HIV-1)
[19] = biological target: Env of HIV-1 strain 6240_08_TA5_4622 (HIV-1)
[20] = biological target: Env of HIV-1 strain 191821_E6_1 (HIV-1)
[21] = biological target: Env of HIV-1 strain X2088_c9 (HIV-1)
[22] = biological target: Env of HIV-1 strain T278-50 (HIV-1)
[23] = biological target: Env of HIV-1 strain CNE21 (HIV-1)
[24] = biological target: Env of HIV-1 strain R2184.c04 (HIV-1)
[25] = biological target: Env of HIV-1 strain ZM249M.PL1 (HIV-1)
[26] = biological target: Env of HIV-1 strain BJOX009000.02.4 (HIV-1)
[27] = biological target: Env of HIV-1 strain WEAU_d15_410_787 (HIV-1)
[28] = biological target: Env of HIV-1 strain A07412M1.vrc12 (HIV-1)
[29] = biological target: Env of HIV-1 strain 6244_13_B5_4576 (HIV-1)
[30] = biological target: Env of HIV-1 strain 89-F1_2_25 (HIV-1)
[31] = biological target: Env of HIV-1 strain HIV-16055-2.3 (HIV-1)
[32] = biological target: Env of HIV-1 strain PVO.4 (HIV-1)
[33] = biological target: Env of HIV-1 strain 928-28 (HIV-1)
[34] = biological target: Env of HIV-1 strain ZM109F.PB4 (HIV-1)
[35] = biological target: Env of HIV-1 strain 211-9 (HIV-1)
[36] = biological target: Env of HIV-1 strain CAP210.2.00.E8 (HIV-1)
[37] = biological target: Env of HIV-1 strain 1012_11_TC21_3257 (HIV-1)
[38] = biological target: Env of HIV-1 strain Du156.12 (HIV-1)
[39] = biological target: Env of HIV-1 strain 191084 B7-19 (HIV-1)
[40] = biological target: Env of HIV-1 strain 191955_A11 (HIV-1)
[41] = biological target: Env of HIV-1 strain WITO4160.33 (HIV-1)
[42] = biological target: Env of HIV-1 strain CAP45.2.00.G3 (HIV-1)
[43] = biological target: Env of HIV-1 strain 249M B10 (HIV-1)
[44] = biological target: Env of HIV-1 strain T250-4 (HIV-1)
[45] = biological target: Env of HIV-1 strain 1006_11_C3_1601 (HIV-1)
[46] = biological target: Env of HIV-1 strain T257-31 (HIV-1)
[47] = biological target: Env of HIV-1 strain 6540.v4.c1 (HIV-1)
[48] = biological target: Env of HIV-1 strain Q769.d22 (HIV-1)
[49] = biological target: Env of HIV-1 strain Ce0682_E4 (HIV-1)
[50] = biological target: Env of HIV-1 strain Ce2060_G9 (HIV-1)
[51] = biological target: Env of HIV-1 strain AC10.0.29 (HIV-1)

B1: NIH45-46^G54W(HC), S28Y(LC) (antibody, V domains shown)
VH: QVRLSQSGGQMKKPGESMRLSCRASGYEFLNCPINWIRLAPGRRPEWMGWLKPRWGAVNYARKFQGRVTMTRDVYSDTAFLELRSLTSDDTAVYFCTRGKYCTARDYYNWDFEHWGRGAPVTVSS
VL: EIVLTQSPATLSLSPGETAIISCRTSQYGSLAWYQQRPGQAPRLVIYSGSTRAAGIPDRFSGSRWGADYNLSISNLESGDFGVYYCQQYEFFGQGTKVQVDI
Binder B1 has an IC50, pseudovirus neutralization [1] of 0.05 µg/mL, an IC50, pseudovirus neutralization [2] of 0.001 µg/mL and an IC50, pseudovirus neutralization [3] of 1.38 µg/mL. For the same binder, the IC50, pseudovirus neutralization [4] was 0.004 µg/mL, the IC50, pseudovirus neutralization [5] was 0.038 µg/mL and the IC50, pseudovirus neutralization [6] was 0.038 µg/mL. For the same binder, the IC50, pseudovirus neutralization [7] was greater than 50 µg/mL, the IC50, pseudovirus neutralization [8] was 0.07 µg/mL and the IC50, pseudovirus neutralization [9] was 0.039 µg/mL. The IC50, pseudovirus neutralization [10] was 0.007 µg/mL, the IC50, pseudovirus neutralization [11] was 0.002 µg/mL and the IC50, pseudovirus neutralization [12] was 0.032 µg/mL. The IC50, pseudovirus neutralization [13] was 0.004 µg/mL.

B2: NIH45-46^G54W (antibody, V domains shown)
VH: QVRLSQSGGQMKKPGESMRLSCRASGYEFLNCPINWIRLAPGRRPEWMGWLKPRWGAVNYARKFQGRVTMTRDVYSDTAFLELRSLTSDDTAVYFCTRGKYCTARDYYNWDFEHWGRGAPVTVSS
VL: EIVLTQSPATLSLSPGETAIISCRTSQSGSLAWYQQRPGQAPRLVIYSGSTRAAGIPDRFSGSRWGADYNLSISNLESGDFGVYYCQQYEFFGQGTKVQVDI
B2 showed an IC80 [14] of 0.099 µg/mL, an IC80 [15] of 0.116 µg/mL and an IC80 [16] of 0.023 µg/mL. For the same binder, the IC80 [17] was 0.92 µg/mL, the IC80 [18] was 0.51 µg/mL and the IC50, pseudovirus neutralization [1] was 0.013 µg/mL. For the same binder, the IC80 [19] was 0.603 µg/mL, the IC80 [20] was 0.099 µg/mL and the IC80 [21] was greater than 50 µg/mL. The IC50, pseudovirus neutralization [2] was 0.001 µg/mL, the IC80 [22] was greater than 50 µg/mL and the IC80 [23] was 0.16 µg/mL. It also gave an IC80 [24] of 0.036 µg/mL, an IC80 [25] of 0.007 µg/mL and an IC50, pseudovirus neutralization [3] of 0.769 µg/mL. The IC80 [26] was 0.564 µg/mL, the IC80 [27] was 0.003 µg/mL and the IC80 [28] was 0.042 µg/mL. It also gave an IC50, pseudovirus neutralization [4] of 0.01 µg/mL, an IC80 [29] of 0.095 µg/mL and an IC80 [30] greater than 50 µg/mL. The IC80 [31] was 0.024 µg/mL, the IC80 [32] was 0.16 µg/mL and the IC50, pseudovirus neutralization [5] was 0.042 µg/mL. For the same binder, the IC80 [33] was 0.25 µg/mL, the IC80 [34] was 0.07 µg/mL and the IC50, pseudovirus neutralization [6] was 0.055 µg/mL. It also gave an IC80 [35] greater than 50 µg/mL, an IC50, pseudovirus neutralization [7] greater than 50 µg/mL and an IC80 [36] greater than 50 µg/mL. For the same binder, the IC80 [37] was 0.003 µg/mL, the IC80 [38] was 0.005 µg/mL and the IC50, pseudovirus neutralization [8] was 0.021 µg/mL. The IC50, pseudovirus neutralization [9] was 0.048 µg/mL, the IC80 [39] was 0.026 µg/mL and the IC50, pseudovirus neutralization [10] was 0.001 µg/mL. The IC80 [40] was 0.076 µg/mL, the IC80 [41] was 0.04 µg/mL and the IC80 [42] was greater than 50 µg/mL. It also gave an IC80 [43] of 0.019 µg/mL, an IC80 [44] of 44.9 µg/mL and an IC80 [45] of 0.008 µg/mL. The IC80 [46] was 0.45 µg/mL, the IC50, pseudovirus neutralization [11] was 0.001 µg/mL and the IC80 [47] was greater than 50 µg/mL. For the same binder, the IC80 [48] was 0.009 µg/mL, the IC50, pseudovirus neutralization [12] was 0.009 µg/mL and the IC80 [49] was 0.039 µg/mL. The IC50, pseudovirus neutralization [13] was 0.01 µg/mL, the IC80 [50] was 0.042 µg/mL and the IC80 [51] was 0.63 µg/mL.

B3: NIH45-46^G54W(HC) S28Y(LC) (antibody, V domains shown)
VH: QVRLSQSGGQMKKPGESMRLSCRASGYEFLNCPINWIRLAPGRRPEWMGWLKPRWGAVNYARKFQGRVTMTRDVYSDTAFLELRSLTSDDTAVYFCTRGKYCTARDYYNWDFEHWGRGAPVTVSS
VL: EIVLTQSPATLSLSPGETAIISCRTSQYGSLAWYQQRPGQAPRLVIYSGSTRAAGIPDRFSGSRWGADYNLSISNLESGDFGVYYCQQYEFFGQGTKVQVDI
B3 gave an IC80 [14] of 0.105 µg/mL, an IC80 [15] of 0.137 µg/mL and an IC80 [16] of 0.054 µg/mL. For the same binder, the IC80 [17] was 1.43 µg/mL, the IC80 [18] was 1.01 µg/mL and the IC80 [19] was 0.623 µg/mL. The IC80 [20] was 0.13 µg/mL, the IC80 [21] was greater than 50 µg/mL and the IC80 [22] was greater than 50 µg/mL. For the same binder, the IC80 [23] was 0.047 µg/mL, the IC80 [24] was 0.039 µg/mL and the IC80 [25] was 0.017 µg/mL. The IC80 [26] was 0.621 µg/mL, the IC80 [27] was 0.027 µg/mL and the IC80 [28] was 0.064 µg/mL. For the same binder, the IC80 [29] was 0.109 µg/mL, the IC80 [30] was greater than 50 µg/mL and the IC80 [31] was 0.017 µg/mL. The IC80 [32] was 0.099 µg/mL, the IC80 [33] was 0.159 µg/mL and the IC80 [34] was 0.086 µg/mL. It also gave an IC80 [35] of 0.898 µg/mL, an IC80 [36] of 9.05 µg/mL and an IC80 [37] of 0.008 µg/mL. For the same binder, the IC80 [38] was 0.024 µg/mL, the IC80 [39] was 0.016 µg/mL and the IC80 [40] was 0.046 µg/mL. The IC80 [41] was 0.073 µg/mL, the IC80 [42] was 0.089 µg/mL and the IC80 [43] was 0.017 µg/mL. It also gave an IC80 [44] of 38.9 µg/mL, an IC80 [45] of 0.037 µg/mL and an IC80 [46] of 0.471 µg/mL. It also gave an IC80 [47] greater than 50 µg/mL, an IC80 [48] of 0.017 µg/mL and an IC80 [49] of 0.031 µg/mL. It also gave an IC80 [50] of 0.062 µg/mL and an IC80 [51] of 0.554 µg/mL.
